From EP1151102B1
Like-named read-outs stand apart in the source and are kept apart here.

What was measured:
[1] = target: chimeric leptin receptor-EPO receptor (OBR-EPOR) on 32D-OBECA cells (human; murine) (UniProt P48357); test: cell-based or functional assay
[2] = target: human leptin receptor (short form), membrane-bound, from stably transfected CHO cells (human) (UniProt P48357); test: 125I-Leptin competition on membranes of CHO cells expressing human leptin receptor; IC50 vs WT
[3] = target: human leptin receptor (short form), membrane-bound, from stably transfected CHO cells (human) (UniProt P48357); test: as above; remark: listed apart in the source

Substance	Bio-activity Rel. to WT. [1]	Bioactivity Rel. to WT. [1]	Receptor binding Rel. to WT. [2]	Bio activity Rel. to WT. [1]	Receptor binding Rel. to WT. [3]
rHu-Leptin 1-146, site 120 (STE > NTT) (ligand)	–	0.01 rel. to WT	0.7 rel. to WT	–	–
rHu-Leptin 1-146, site 46 (HPI > NPT) (ligand)	–	0.27 rel. to WT	0.11 rel. to WT	–	–
rHu-Leptin 1-146, site 23a (DIS > NIT) (ligand)	0.53 rel. to WT	0.53 rel. to WT	–	–	–
rHu-Leptin 1-146, site 26 (HTQ > NTT) (ligand)	–	0.01 rel. to WT	1.5 rel. to WT	–	–
rHu-Leptin 1-146, site 73 (VIQ > NIT) (ligand)	–	0.01 rel. to WT	8 rel. to WT	–	–
rHu-Leptin 1-146, site 45 (CHP > NHT) (ligand)	–	0.08 rel. to WT	0.5 rel. to WT	–	–
rHu-Leptin 1-145 (ligand)	–	–	1.3 rel. to WT	0.14 rel. to WT	–
rHu-Leptin 1-146, site 67 (SMP > NMT) (ligand)	–	0.52 rel. to WT	0.8 rel. to WT	–	–
rHu-Leptin 1-146, site 27 (TQS > NQT) (ligand)	–	0.13 rel. to WT	0.7 rel. to WT	–	–
rHu-Leptin 1-146, site 100d (PWAS > ANAT) (ligand)	–	0.26 rel. to WT	1.45 rel. to WT	–	–
rHu-Leptin 1-146, site 29 (SVS > NVT) (ligand)	–	0.5 rel. to WT	0.6 rel. to WT	–	–
rHu-Leptin 1-146, site 93 (SKS > NKT) (ligand)	–	1.1 rel. to WT	–	–	–
rHu-Leptin 1-146, site 38 (GLD > NLT) (ligand)	–	0.036 rel. to WT	0.2 rel. to WT	–	–
rHu-Leptin 1-146, site 97 (HLP > NLT) (ligand)	–	1.1 rel. to WT	–	–	–
rHu-Leptin 1-146, site 103 (GLE > NLT) (ligand)	–	0.73 rel. to WT	1 rel. to WT	–	–
rHu-Leptin 1-146, site 92 (FSK > NST) (ligand)	0.8 rel. to WT	0.67 rel. to WT	1.6 rel. to WT	–	–

Substance	Bio-activity Rel. to WT. [1]	Bioactivity Rel. to WT. [1]	Receptor binding Rel. to WT. [2]	Bio activity Rel. to WT. [1]	Receptor binding Rel. to WT. [3]
rHu-Leptin 1-146, site 101 (ASG > NST) (ligand)	–	0.33 rel. to WT	0.7 rel. to WT	–	–
rHu-Leptin 1-146, site 115 (EAS > NAT) (ligand)	–	0.006 rel. to WT	0.9 rel. to WT	–	–
rHu-Leptin 1-146 expressed with the erythropoietin signal peptide and human albumin prosequence (ligand)	–	–	3.5 rel. to WT	1.8 rel. to WT	–
rHu-Leptin 1-146, site 72 (NVI > NVT) (ligand)	–	0.26 rel. to WT	1.7 rel. to WT	–	–
rHu-Leptin 1-146, site 117 (SGY > NGT) (ligand)	–	0.01 rel. to WT	1.9 rel. to WT	–	–
rHu-Leptin 1-146 (wild type) (ligand)	–	1 rel. to WT	1 rel. to WT	1 rel. to WT	–
rHu-Leptin 1-146, site 116 (ASG > NST) (ligand)	–	0.56 rel. to WT	0.9 rel. to WT	–	–
rHu-Leptin 1-146, site 119 (YST > NST) (ligand)	–	0.02 rel. to WT	0.8 rel. to WT	–	–
rHu-Leptin 1-146, site 118 (GYS > NYT) (ligand)	–	3.8 rel. to WT	0.8 rel. to WT	–	–
rHu-Leptin 1-146, site 68 (MPS > NAT) (ligand)	–	0.036 rel. to WT	0.8 rel. to WT	–	–
rHu-Leptin 1-146, site 44 (GLH > NLT) (ligand)	–	0.78 rel. to WT	2 rel. to WT	–	–
rHu-Leptin 1-146, site 25 (SHT > NHT) (ligand)	–	0.02 rel. to WT	0.4 rel. to WT	–	–
rHu-Leptin 1-145 expressed with the erythropoietin signal peptide (ligand)	–	–	0.6 rel. to WT	0.36 rel. to WT	–
rHu-Leptin 1-146, site 100c (WAS > NAT) (ligand)	–	0.81 rel. to WT	0.45 rel. to WT	–	–
rHu-Leptin 1-146, site 7 (QDD > NDT) (ligand)	–	0.04 rel. to WT	1.25 rel. to WT	–	–
rHu-Leptin 1-146, site 48 (ILT > NLT) (ligand)	0.53 rel. to WT	0.53 rel. to WT	0.8 rel. to WT	–	–

More lines, now with the values ahead:

Bio-activity Rel. to WT. [1]	Bioactivity Rel. to WT. [1]	Receptor binding Rel. to WT. [2]	Bio activity Rel. to WT. [1]	Receptor binding Rel. to WT. [3]	Substance
0.84 rel. to WT	0.84 rel. to WT	0.66 rel. to WT	–	–	rHu-Leptin 1-146, site 47 (PIL > NIT) (ligand)
–	< 0.02 rel. to WT	2.2 rel. to WT	–	–	rHu-Leptin 1-146, site 77 (SND > NNT), expressed with the erythropoietin signal peptide (ligand)
–	0.5 rel. to WT	0.9 rel. to WT	–	–	rHu-Leptin 1-146, site 99 (PWA > NWT) (ligand)
–	0.13 rel. to WT	0.5 rel. to WT	–	–	rHu-Leptin 1-146, site 35 (KVT > NVT) (ligand)
–	0.043 rel. to WT	0.4 rel. to WT	–	–	rHu-Leptin 1-146, site 37 (TGL > NGT) (ligand)
1.1 rel. to WT	1.1 rel. to WT	0.6 rel. to WT	–	–	rHu-Leptin 1-146, site 69 (PSR > NST) (ligand)
0.79 rel. to WT	–	0.5 rel. to WT	–	–	rHu-Leptin 1-146, site 23a (DIS > NIT), erythropoietin signal peptide (ligand)
–	0.83 rel. to WT	> 1.9 rel. to WT	–	–	rHu-Leptin 1-146, site 100e (WAS > TAS) (ligand)
–	1.2 rel. to WT	1.2 rel. to WT	–	–	rHu-Leptin 1-146, site 8 (DDT > NDT) (ligand)
–	1.46 rel. to WT	0.7 rel. to WT	–	–	rHu-Leptin 1-146, site 100b (WAS > NAS) (ligand)
–	0.04 rel. to WT	0.9 rel. to WT	–	–	rHu-Leptin 1-146, site 33 (KQK > NQT) (ligand)
–	1 rel. to WT	0.3 rel. to WT	–	–	rHu-Leptin 1-146, site 141 (DLS > NLT) (ligand)
–	0.014 rel. to WT	1.5 rel. to WT	–	–	rHu-Leptin 1-146, site 43 (PGL > NGT) (ligand)
–	0.05 rel. to WT	1.7 rel. to WT	–	–	rHu-Leptin 1-146, site 5 (KVQ > NVT) (ligand)
0.66 rel. to WT	0.85 rel. to WT	0.6 rel. to WT	–	0.5 rel. to WT	rHu-Leptin 1-146, site 102 (SGL > NGT) (ligand)
–	1 rel. to WT	1 rel. to WT	–	–	rHu-Leptin 1-146, site 70 (SRN > NRT) (ligand)
–	–	1 rel. to WT	0.95 rel. to WT	–	rHu-Leptin 1-146 expressed with the native human erythropoietin signal peptide (ligand)
–	0.3 rel. to WT	1.9 rel. to WT	–	–	rHu-Leptin 1-146, site 71 (RNV > NNT) (ligand)
–	0.73 rel. to WT	1.7 rel. to WT	–	–	rHu-Leptin 1-146, site 4 (QKV > NKV) (ligand)
–	0.9 rel. to WT	0.6 rel. to WT	–	–	rHu-Leptin 1-146, site 100a (PWAS > SNAT) (ligand)
